Reference: patent publication US20240191241, “APTAMERS FOR USE IN THE […] OF CORONAVIRIDAE INFECTIONS” (Berlin Cures GmbH, published 2024)

T1: SARS-CoV-2 RNA-dependent RNA polymerase peptide LYRNRDV (SARS-CoV-2)
T1 chain: LYRNRDV

T2: SARS-CoV-2 spike receptor-binding domain peptide No. 4 (YRLFRK) (SARS-CoV-2)
T2 chain: YRLFRK

T3: SARS-CoV-2 RNA-dependent RNA polymerase peptide HRFYRLAN (SARS-CoV-2)
T3 chain: HRFYRLAN

T4: SARS-CoV-2 spike receptor-binding domain control peptide NRKRISN (SARS-CoV-2)
T4 chain: NRKRISN


Key:
[1] = molecular target: T1, SARS-CoV-2 RNA-dependent RNA polymerase …; experiment: NMR; quadruplex fold induced by peptide; 90/10 H2O/D2O, 298 K; conditions: tags: isolated peptide; G4
[2] = molecular target: T2, SARS-CoV-2 spike receptor-binding …; experiment: NMR; quadruplex imino signals induced by peptide; 1 mM each, 90/10 H2O/D2O, 298 K, no additives; conditions: tags: isolated peptide; G4
[3] = molecular target: T3, SARS-CoV-2 RNA-dependent RNA polymerase …; experiment: ITC; 1:1 stoichiometry; 50 mM sodium phosphate, 150 mM NaCl, pH 7.06, 25 C; quadruplex induction also by NMR; Kd not given; conditions: tags: isolated peptide; G4
[4] = molecular target: T4, SARS-CoV-2 spike receptor-binding …; experiment: NMR: nearly complete absence of quadruplex formation; also used as control in ITC (50 mM sodium phosphate, 150 mM NaCl, pH 7.16, 25 C); conditions: tags: isolated peptide; G4
Thrombin = Thrombin (Homo sapiens, UniProt P00734;P00734 P00734:328-363,P00734:364-622); experiment: ELONA

Binder | binding result [1] | binding result [2] | binding result [3] | binding result [4] | binding result (Thrombin)
GGTTGGTGTGGTTGG (ssDNA) [BC007] | binds | binds | binds | no binding | –
GGTTGGTGTGGTTGG (ssDNA) [BC007 5'-biotinylated] | – | – | – | – | binds
